This assay concerns the target FGFR1c, P11362. Briefly: cell-based or functional assay.

FGFR1c, P11362, sequence (P11362 22-822): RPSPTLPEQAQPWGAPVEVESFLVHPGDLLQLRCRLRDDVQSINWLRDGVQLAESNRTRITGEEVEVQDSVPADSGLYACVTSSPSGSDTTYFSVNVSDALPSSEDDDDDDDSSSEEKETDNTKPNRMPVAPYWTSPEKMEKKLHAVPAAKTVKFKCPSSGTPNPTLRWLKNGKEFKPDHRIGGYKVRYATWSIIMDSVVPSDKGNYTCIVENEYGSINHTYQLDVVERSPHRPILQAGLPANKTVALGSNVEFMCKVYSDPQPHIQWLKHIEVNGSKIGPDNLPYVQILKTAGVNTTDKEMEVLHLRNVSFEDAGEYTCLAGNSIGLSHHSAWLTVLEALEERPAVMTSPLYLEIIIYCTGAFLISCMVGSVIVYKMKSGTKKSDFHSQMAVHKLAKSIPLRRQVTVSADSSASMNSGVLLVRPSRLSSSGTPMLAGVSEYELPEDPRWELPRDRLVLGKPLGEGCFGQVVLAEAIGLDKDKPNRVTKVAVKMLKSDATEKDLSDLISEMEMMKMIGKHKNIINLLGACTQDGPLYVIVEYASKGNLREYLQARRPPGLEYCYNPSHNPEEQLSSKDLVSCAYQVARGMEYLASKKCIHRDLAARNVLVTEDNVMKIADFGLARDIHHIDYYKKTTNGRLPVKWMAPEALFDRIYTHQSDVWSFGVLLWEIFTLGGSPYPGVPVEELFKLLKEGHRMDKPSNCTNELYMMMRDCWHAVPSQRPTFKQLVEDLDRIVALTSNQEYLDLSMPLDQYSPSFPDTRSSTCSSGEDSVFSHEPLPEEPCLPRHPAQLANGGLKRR

B1: Human mature FGF21 mutant RGE (FGF21RGE), Q9NSA1 29-209 (ligand)
chain: HPIPDSSPLLQFGGQVRQRYLYTDDAQQTEAHLEIREDGTVGGAADQSPESLLQLKALKPGVIQILGVKTSRFLCQRPDGALYGSLHFDPEACSFRERLLEDGYNVYQSEAHGLPLHLPGNKSPHRDPAPRGPARFLPLPGLPPAPPEPPGILAPQPPDVGSSDPLSMVGGSQGRSPSYES
With B1, the EC50(nM), dual-luciferase reporter gene assay, iLite FGF21 assay ready cells is 0.25 nM.

B2: Human mature FGF21 mutant H125C (FGF21H125C), Q9NSA1 29-209 (ligand)
chain: HPIPDSSPLLQFGGQVRQRYLYTDDAQQTEAHLEIREDGTVGGAADQSPESLLQLKALKPGVIQILGVKTSRFLCQRPDGALYGSLHFDPEACSFRERLLEDGYNVYQSEAHGLPLHLPGNKSPCRDPAPRGPARFLPLPGLPPAPPEPPGILAPQPPDVGSSDPLSMVGGSQGRSPSYES
Consider B2, for which the EC50(nM), dual-luciferase reporter gene assay, iLite FGF21 assay ready cells amounted to 0.28 nM.

B3: Human mature FGF21 mutant E30C (FGF21E30C), Q9NSA1 29-209 (ligand)
chain: HPIPDSSPLLQFGGQVRQRYLYTDDAQQTCAHLEIREDGTVGGAADQSPESLLQLKALKPGVIQILGVKTSRFLCQRPDGALYGSLHFDPEACSFRERLLEDGYNVYQSEAHGLPLHLPGNKSPHRDPAPRGPARFLPLPGLPPAPPEPPGILAPQPPDVGSSDPLSMVGGSQGRSPSYES
Take B3: the EC50(nM), dual-luciferase reporter gene assay, iLite FGF21 assay ready cells came to 1.31 nM.

B4: Human mature FGF21 mutant D46C (FGF21D46C), Q9NSA1 29-209 (ligand)
chain: HPIPDSSPLLQFGGQVRQRYLYTDDAQQTEAHLEIREDGTVGGAACQSPESLLQLKALKPGVIQILGVKTSRFLCQRPDGALYGSLHFDPEACSFRERLLEDGYNVYQSEAHGLPLHLPGNKSPHRDPAPRGPARFLPLPGLPPAPPEPPGILAPQPPDVGSSDPLSMVGGSQGRSPSYES
Consider B4, for which the EC50(nM), dual-luciferase reporter gene assay, iLite FGF21 assay ready cells turned out to be 0.28 nM.

B5: Compound 5.14, Q9NSA1 29-209 (ligand)
chain: HPIPDSSPLLQFGGQVRQRYLYTDDAQQTEAHLEIREDGTVGGAADQSPESLLQLKALKPGVIQILGVKTSRFLCQRPDGALYGSLHFDPEACSFRERLLEDGYNVYQSEAHGLPLHLPGNCSPHRDPAPRGPARFLPLPGLPPAPPEPPGILAPQPPDVGSSDPLSMVGGSQGRSPSYES
modifications: here or on the partner: Cys 122 (K122C) carries the albumin-binding agent of Example 2.4, C20 Dicarboxylic Acid-gGlu-AEEA-AEEA-Lys(bromoacetyl)-COOH (bromine displaced by the thiol)
For B5, the EC50(nM), dual-luciferase reporter gene assay, iLite FGF21 assay ready cells turned out to be 1.02 nM.

B6: Compound 5.10, Q9NSA1 29-209 (ligand)
chain: HPIPDSSPLLQFGGQVRQRYLYTDDAQQTEAHLEIREDGTVGGAACQSPESLLQLKALKPGVIQILGVKTSRFLCQRPDGALYGSLHFDPEACSFRERLLEDGYNVYQSEAHGLPLHLPGNKSPHRDPAPRGPARFLPLPGLPPAPPEPPGILAPQPPDVGSSDPLSMVGGSQGRSPSYES
modifications: here or on the partner: Cys 46 (D46C) carries the albumin-binding agent of Example 2.3, C20 Dicarboxylic Acid-AEEA-gGlu-gGlu-Lys(bromoacetyl)-COOH (bromine displaced by the thiol)
In turn, B6 yielded an EC50(nM), dual-luciferase reporter gene assay, iLite FGF21 assay ready cells of 2.69 nM.

B7: Compound 5.13, Q9NSA1 29-209 (ligand)
chain: HPIPDSSPLLQFGGQVRQRYLYTDDAQQTEAHLEIREDGTVGGAACQSPESLLQLKALKPGVIQILGVKTSRFLCQRPDGALYGSLHFDPEACSFRERLLEDGYNVYQSEAHGLPLHLPGNKSPHRDPAPRGPARFLPLPGLPPAPPEPPGILAPQPPDVGSSDPLSMVGGSQGRSPSYES
modifications: here or on the partner: Cys 46 (D46C) carries the albumin-binding agent of Example 2.4, C20 Dicarboxylic Acid-gGlu-AEEA-AEEA-Lys(bromoacetyl)-COOH (bromine displaced by the thiol)
Take B7: the EC50(nM), dual-luciferase reporter gene assay, iLite FGF21 assay ready cells was determined as 1.84 nM.

B8: Compound 5.3, Q9NSA1 29-209 (ligand)
chain: HPIPDSSPLLQFGGQVRQRYLYTDDAQQTEAHLEIREDGTVGGAACQSPESLLQLKALKPGVIQILGVKTSRFLCQRPDGALYGSLHFDPEACSFRERLLEDGYNVYQSEAHGLPLHLPGNKSPHRDPAPRGPARFLPLPGLPPAPPEPPGILAPQPPDVGSSDPLSMVGGSQGRSPSYES
modifications: here or on the partner: Cys 46 (D46C) carries the albumin-binding agent of Example 2.1, C18 Dicarboxylic Acid-AEEA-gGlu-gGlu-Lys(bromoacetyl)-COOH (bromine displaced by the thiol)
In the case of B8, the EC50(nM), dual-luciferase reporter gene assay, iLite FGF21 assay ready cells was 0.24 nM.

B9: Compound 5.12, Q9NSA1 29-209 (ligand)
chain: HPIPDSSPLLQFGGQVRQRYLYTDDAQQTEAHLEIREDGTVGGAADQSPESLLQLKALKPGVIQILGVKTSRFLCQRPDGALYGSLHFDPEACSFRERLLEDGYNVYQSEAHGLPLHLPGNKSPCRDPAPRGPARFLPLPGLPPAPPEPPGILAPQPPDVGSSDPLSMVGGSQGRSPSYES
modifications: here or on the partner: Cys 125 (H125C) carries the albumin-binding agent of Example 2.3, C20 Dicarboxylic Acid-AEEA-gGlu-gGlu-Lys(bromoacetyl)-COOH (bromine displaced by the thiol)
Regarding B9, the EC50(nM), dual-luciferase reporter gene assay, iLite FGF21 assay ready cells was determined as 1.4 nM.

B10: Compound 5.1, Q9NSA1 29-209 (ligand)
chain: HPIPDSSPLLQFGGQVRQRYLYTDDAQQTCAHLEIREDGTVGGAADQSPESLLQLKALKPGVIQILGVKTSRFLCQRPDGALYGSLHFDPEACSFRERLLEDGYNVYQSEAHGLPLHLPGNKSPHRDPAPRGPARFLPLPGLPPAPPEPPGILAPQPPDVGSSDPLSMVGGSQGRSPSYES
modifications: here or on the partner: Cys 30 (E30C) carries the albumin-binding agent of Example 2.1, C18 Dicarboxylic Acid-AEEA-gGlu-gGlu-Lys(bromoacetyl)-COOH (bromine displaced by the thiol)
As for B10, the EC50(nM), dual-luciferase reporter gene assay, iLite FGF21 assay ready cells stood at 4.61 nM.

B11: Compound 5.6, Q9NSA1 29-209 (ligand)
chain: HPIPDSSPLLQFGGQVRQRYLYTDDAQQTEAHLEIRECGTVGGAADQSPESLLQLKALKPGVIQILGVKTSRFLCQRPDGALYGSLHFDPEACSFRERLLEDGYNVYQSEAHGLPLHLPGNKSPHRDPAPRGPARFLPLPGLPPAPPEPPGILAPQPPDVGSSDPLSMVGGSQGRSPSYES
modifications: here or on the partner: Cys 38 (D38C) carries the albumin-binding agent of Example 2.2, C18 Dicarboxylic Acid-gGlu-AEEA-AEEA-Lys(bromoacetyl)-COOH (bromine displaced by the thiol)
Molecule B11 yielded an EC50(nM), dual-luciferase reporter gene assay, iLite FGF21 assay ready cells of 2.06 nM.

B12: Compound 5.11, Q9NSA1 29-209 (ligand)
chain: HPIPDSSPLLQFGGQVRQRYLYTDDAQQTEAHLEIREDGTVGGAADQSPESLLQLKALKPGVIQILGVKTSRFLCQRPDGALYGSLHFDPEACSFRERLLEDGYNVYQSEAHGLPLHLPGNCSPHRDPAPRGPARFLPLPGLPPAPPEPPGILAPQPPDVGSSDPLSMVGGSQGRSPSYES
modifications: here or on the partner: Cys 122 (K122C) carries the albumin-binding agent of Example 2.3, C20 Dicarboxylic Acid-AEEA-gGlu-gGlu-Lys(bromoacetyl)-COOH (bromine displaced by the thiol)
As to B12, the EC50(nM), dual-luciferase reporter gene assay, iLite FGF21 assay ready cells came out at 2.09 nM.

B13: Compound 5.5, Q9NSA1 29-209 (ligand)
chain: HPIPDSSPLLQFGGQVRQRYLYTDDAQQTEAHLEIREDGTVGGAADQSPESLLQLKALKPGVIQILGVKTSRFLCQRPDGALYGSLHFDPEACSFRERLLEDGYNVYQSEAHGLPLHLPGNKSPCRDPAPRGPARFLPLPGLPPAPPEPPGILAPQPPDVGSSDPLSMVGGSQGRSPSYES
modifications: here or on the partner: Cys 125 (H125C) carries the albumin-binding agent of Example 2.1, C18 Dicarboxylic Acid-AEEA-gGlu-gGlu-Lys(bromoacetyl)-COOH (bromine displaced by the thiol)
On to B13, for which the EC50(nM), dual-luciferase reporter gene assay, iLite FGF21 assay ready cells is 0.52 nM.

B14: Compound 5.4, Q9NSA1 29-209 (ligand)
chain: HPIPDSSPLLQFGGQVRQRYLYTDDAQQTEAHLEIREDGTVGGAADQSPESLLQLKALKPGVIQILGVKTSRFLCQRPDGALYGSLHFDPEACSFRERLLEDGYNVYQSEAHGLPLHLPGNCSPHRDPAPRGPARFLPLPGLPPAPPEPPGILAPQPPDVGSSDPLSMVGGSQGRSPSYES
modifications: here or on the partner: Cys 122 (K122C) carries the albumin-binding agent of Example 2.1, C18 Dicarboxylic Acid-AEEA-gGlu-gGlu-Lys(bromoacetyl)-COOH (bromine displaced by the thiol)
In turn, B14 had an EC50(nM), dual-luciferase reporter gene assay, iLite FGF21 assay ready cells of 0.99 nM.

B15: Human mature FGF21 mutant K122C (FGF21K122C), Q9NSA1 29-209 (ligand)
chain: HPIPDSSPLLQFGGQVRQRYLYTDDAQQTEAHLEIREDGTVGGAADQSPESLLQLKALKPGVIQILGVKTSRFLCQRPDGALYGSLHFDPEACSFRERLLEDGYNVYQSEAHGLPLHLPGNCSPHRDPAPRGPARFLPLPGLPPAPPEPPGILAPQPPDVGSSDPLSMVGGSQGRSPSYES
With B15, the EC50(nM), dual-luciferase reporter gene assay, iLite FGF21 assay ready cells amounted to 0.3 nM.

B16: Compound 5.8, Q9NSA1 29-209 (ligand)
chain: HPIPDSSPLLQFGGQVRQRYLYTDDAQQTEAHLEIREDGTVGGAADQSPESLLQLKALKPGVIQILGVKTSRFLCQRPDGALYGSLHFDPEACSFRERLLEDGYNVYQSEAHGLPLHLPGNCSPHRDPAPRGPARFLPLPGLPPAPPEPPGILAPQPPDVGSSDPLSMVGGSQGRSPSYES
modifications: here or on the partner: Cys 122 (K122C) carries the albumin-binding agent of Example 2.2, C18 Dicarboxylic Acid-gGlu-AEEA-AEEA-Lys(bromoacetyl)-COOH (bromine displaced by the thiol)
The molecule B16 yielded an EC50(nM), dual-luciferase reporter gene assay, iLite FGF21 assay ready cells of 1.13 nM.

B17: Compound 5.15, Q9NSA1 29-209 (ligand)
chain: HPIPDSSPLLQFGGQVRQRYLYTDDAQQTEAHLEIREDGTVGGAADQSPESLLQLKALKPGVIQILGVKTSRFLCQRPDGALYGSLHFDPEACSFRERLLEDGYNVYQSEAHGLPLHLPGNKSPCRDPAPRGPARFLPLPGLPPAPPEPPGILAPQPPDVGSSDPLSMVGGSQGRSPSYES
modifications: here or on the partner: Cys 125 (H125C) carries the albumin-binding agent of Example 2.4, C20 Dicarboxylic Acid-gGlu-AEEA-AEEA-Lys(bromoacetyl)-COOH (bromine displaced by the thiol)
Turning to B17, the EC50(nM), dual-luciferase reporter gene assay, iLite FGF21 assay ready cells is 0.47 nM.

B18: Compound 5.9, Q9NSA1 29-209 (ligand)
chain: HPIPDSSPLLQFGGQVRQRYLYTDDAQQTEAHLEIREDGTVGGAADQSPESLLQLKALKPGVIQILGVKTSRFLCQRPDGALYGSLHFDPEACSFRERLLEDGYNVYQSEAHGLPLHLPGNKSPCRDPAPRGPARFLPLPGLPPAPPEPPGILAPQPPDVGSSDPLSMVGGSQGRSPSYES
modifications: here or on the partner: Cys 125 (H125C) carries the albumin-binding agent of Example 2.2, C18 Dicarboxylic Acid-gGlu-AEEA-AEEA-Lys(bromoacetyl)-COOH (bromine displaced by the thiol)
Molecule B18 came in with an EC50(nM), dual-luciferase reporter gene assay, iLite FGF21 assay ready cells of 1.18 nM.

B19: Human mature FGF21 mutant D38C (FGF21D38C), Q9NSA1 29-209 (ligand)
chain: HPIPDSSPLLQFGGQVRQRYLYTDDAQQTEAHLEIRECGTVGGAADQSPESLLQLKALKPGVIQILGVKTSRFLCQRPDGALYGSLHFDPEACSFRERLLEDGYNVYQSEAHGLPLHLPGNKSPHRDPAPRGPARFLPLPGLPPAPPEPPGILAPQPPDVGSSDPLSMVGGSQGRSPSYES
Take B19: the EC50(nM), dual-luciferase reporter gene assay, iLite FGF21 assay ready cells worked out at 1 nM.

B20: Compound 5.7, Q9NSA1 29-209 (ligand)
chain: HPIPDSSPLLQFGGQVRQRYLYTDDAQQTEAHLEIREDGTVGGAACQSPESLLQLKALKPGVIQILGVKTSRFLCQRPDGALYGSLHFDPEACSFRERLLEDGYNVYQSEAHGLPLHLPGNKSPHRDPAPRGPARFLPLPGLPPAPPEPPGILAPQPPDVGSSDPLSMVGGSQGRSPSYES
modifications: here or on the partner: Cys 46 (D46C) carries the albumin-binding agent of Example 2.2, C18 Dicarboxylic Acid-gGlu-AEEA-AEEA-Lys(bromoacetyl)-COOH (bromine displaced by the thiol)
The molecule B20 gave an EC50(nM), dual-luciferase reporter gene assay, iLite FGF21 assay ready cells of 1.06 nM.

B21: Compound 5.2, Q9NSA1 29-209 (ligand)
chain: HPIPDSSPLLQFGGQVRQRYLYTDDAQQTEAHLEIRECGTVGGAADQSPESLLQLKALKPGVIQILGVKTSRFLCQRPDGALYGSLHFDPEACSFRERLLEDGYNVYQSEAHGLPLHLPGNKSPHRDPAPRGPARFLPLPGLPPAPPEPPGILAPQPPDVGSSDPLSMVGGSQGRSPSYES
modifications: here or on the partner: Cys 38 (D38C) carries the albumin-binding agent of Example 2.1, C18 Dicarboxylic Acid-AEEA-gGlu-gGlu-Lys(bromoacetyl)-COOH (bromine displaced by the thiol)
Take B21: the EC50(nM), dual-luciferase reporter gene assay, iLite FGF21 assay ready cells stood at 1.99 nM.
